Measured values: patent US20260028587A1

Biological target: human TMEM119 (transmembrane protein 119) (human) (UniProt Q4V9L6)
Assay: flow cytometry on primary human brain cell suspensions

UniProt Q4V9L6, sequence (Q4V9L6 26-283): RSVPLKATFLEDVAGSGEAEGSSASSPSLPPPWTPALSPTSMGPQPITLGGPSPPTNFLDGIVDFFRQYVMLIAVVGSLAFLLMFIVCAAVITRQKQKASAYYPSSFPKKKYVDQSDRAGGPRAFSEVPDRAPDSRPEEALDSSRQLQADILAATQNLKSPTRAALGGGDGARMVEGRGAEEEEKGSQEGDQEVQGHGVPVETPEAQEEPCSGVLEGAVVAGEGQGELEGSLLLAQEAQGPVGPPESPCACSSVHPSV

Q: For “Mouse anti-hTMEM119 monoclonal clone A16075D (antibody)”, which percent of CD45+/CD11B+ human brain cells stained is on record?
A: The percent of CD45+/CD11B+ human brain cells stained was 70 to 98%.
